Bridge positions count the residues as written; N and C are the ends. Ends that are not written are not given here. I, II: the chains in the order shown. * marks the point of attachment. Formula (I) = human serum albumin binder 2-[2-[2-[2-[2-[2-[2-(carbonylmethoxy)ethoxy]ethylamino]-2-oxo-ethoxy]ethoxy]ethylamino]-2-oxo-ethoxy]-5-(18-carboxyoctadecyl)benzoic acid, amide to Lys epsilon-N, O=C(O)CCCCCCCCCCCCCCCCCCc1ccc(OCC(=O)NCCOCCOCC(=O)NCCOCCOCC(=O)*)c(C(=O)O)c1
Tests used:
[1] = target: human insulin receptor isoform B (human) (UniProt P06213); assay: cell-based or functional assay
Chain of UniProt P06213 (P06213 28-1382): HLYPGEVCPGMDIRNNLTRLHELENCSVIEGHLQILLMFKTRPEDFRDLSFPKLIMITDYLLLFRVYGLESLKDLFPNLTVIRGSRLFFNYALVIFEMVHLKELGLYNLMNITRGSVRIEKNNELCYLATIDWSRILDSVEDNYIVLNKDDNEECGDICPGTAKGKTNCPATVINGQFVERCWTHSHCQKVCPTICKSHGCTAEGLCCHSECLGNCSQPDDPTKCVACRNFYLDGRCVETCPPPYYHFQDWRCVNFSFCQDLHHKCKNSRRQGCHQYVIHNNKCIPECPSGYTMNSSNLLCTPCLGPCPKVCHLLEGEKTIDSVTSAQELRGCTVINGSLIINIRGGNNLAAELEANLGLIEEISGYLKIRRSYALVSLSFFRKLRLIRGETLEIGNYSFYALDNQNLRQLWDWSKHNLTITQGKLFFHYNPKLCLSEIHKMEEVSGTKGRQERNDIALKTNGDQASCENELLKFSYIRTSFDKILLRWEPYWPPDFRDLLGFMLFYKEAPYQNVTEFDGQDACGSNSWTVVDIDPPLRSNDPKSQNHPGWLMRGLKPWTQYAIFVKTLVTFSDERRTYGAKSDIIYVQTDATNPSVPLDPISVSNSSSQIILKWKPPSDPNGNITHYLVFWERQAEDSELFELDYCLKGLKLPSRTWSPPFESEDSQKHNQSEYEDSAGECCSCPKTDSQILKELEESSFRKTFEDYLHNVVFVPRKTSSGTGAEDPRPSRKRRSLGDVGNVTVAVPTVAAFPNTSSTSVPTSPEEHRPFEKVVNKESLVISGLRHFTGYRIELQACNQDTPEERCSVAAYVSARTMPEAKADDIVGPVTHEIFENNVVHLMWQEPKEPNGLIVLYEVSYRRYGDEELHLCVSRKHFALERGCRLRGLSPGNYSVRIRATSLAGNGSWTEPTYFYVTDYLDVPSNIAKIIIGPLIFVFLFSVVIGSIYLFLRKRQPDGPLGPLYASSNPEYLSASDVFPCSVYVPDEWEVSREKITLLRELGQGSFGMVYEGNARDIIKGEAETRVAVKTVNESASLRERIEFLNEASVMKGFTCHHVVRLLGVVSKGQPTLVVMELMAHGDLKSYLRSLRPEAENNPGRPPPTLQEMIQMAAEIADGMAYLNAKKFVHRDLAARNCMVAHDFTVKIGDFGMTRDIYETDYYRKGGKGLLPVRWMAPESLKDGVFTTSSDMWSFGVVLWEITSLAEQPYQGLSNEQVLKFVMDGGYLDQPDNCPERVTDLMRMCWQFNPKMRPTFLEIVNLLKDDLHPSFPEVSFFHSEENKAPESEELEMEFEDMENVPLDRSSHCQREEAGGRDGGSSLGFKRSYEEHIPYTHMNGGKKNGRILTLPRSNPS

[2] = target: human insulin receptor isoform B (human) (UniProt P06213); assay: SPA competition with [125I]-labelled human insulin, membranes of CHO cells overexpressing IR

Autophosphorylation activity (relative to human insulin) (relative to human insulin) [1]: 0.07
Insulin receptor B binding affinity relative to human insulin [2]: < 2%
Insulin-receptor binding affinity relative to human insulin (relative to human insulin) [2]: 0.01
B1: Conjugate 1: Arg(A5)Glu(A14)Arg(A18)Gly(A21)Glu(B16)His(B25)Arg(B27)Arg(B31)-insulin with the human serum albumin binder of Formula (I) on Lys(B29) (ligand)
chain 1: GIVERCCTSICSLEQLERYCG
chain 2: FVNQHLCGSHLVEALELVCGERGFHYRPK(Formula (I))TR
modifications: disulfide I:6-I:11, I:20-II:19, I:7-II:7

Reference: patent US20250082758A1
